Among the data in article PMC10329719 (2023) are Kd values, retold here.

Primed or numbered codes have the meaning given here. Where no end group is shown, it is not given here. FITC′ = not defined here

Holding throughout (experiment): ELISA-like fluorescence binding assay
One test deals with T1, TβR1 (Homo sapiens, UniProt P36897).
T1 chain: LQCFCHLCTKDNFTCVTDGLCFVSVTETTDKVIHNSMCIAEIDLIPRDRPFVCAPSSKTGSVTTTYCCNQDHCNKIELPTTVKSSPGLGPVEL

Another test has as its target T2, TβR3 (Homo sapiens, UniProt Q03167).
T2 chain: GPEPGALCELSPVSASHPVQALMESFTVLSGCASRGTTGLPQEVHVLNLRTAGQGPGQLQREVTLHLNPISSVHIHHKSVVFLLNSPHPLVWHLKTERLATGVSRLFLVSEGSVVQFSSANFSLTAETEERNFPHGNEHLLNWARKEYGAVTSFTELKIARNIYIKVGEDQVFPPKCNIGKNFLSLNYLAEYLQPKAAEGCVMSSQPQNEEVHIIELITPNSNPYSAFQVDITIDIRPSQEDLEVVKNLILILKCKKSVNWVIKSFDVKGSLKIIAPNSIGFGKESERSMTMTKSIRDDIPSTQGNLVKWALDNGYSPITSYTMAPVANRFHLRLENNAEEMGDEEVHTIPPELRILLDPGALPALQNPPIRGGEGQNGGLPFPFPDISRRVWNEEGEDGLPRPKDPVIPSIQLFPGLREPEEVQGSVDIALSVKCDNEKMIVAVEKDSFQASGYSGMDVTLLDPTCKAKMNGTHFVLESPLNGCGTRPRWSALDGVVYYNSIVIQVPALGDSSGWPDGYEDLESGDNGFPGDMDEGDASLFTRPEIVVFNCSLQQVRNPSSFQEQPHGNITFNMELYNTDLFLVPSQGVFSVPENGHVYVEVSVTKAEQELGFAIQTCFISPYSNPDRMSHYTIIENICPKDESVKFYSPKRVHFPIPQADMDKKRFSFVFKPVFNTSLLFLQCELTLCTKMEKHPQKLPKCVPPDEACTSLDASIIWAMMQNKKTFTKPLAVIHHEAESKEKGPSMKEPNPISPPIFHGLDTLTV

A further test has as its target TβR2 (Homo sapiens, UniProt P37173).

Chain of TβR2 (P37173 23-166): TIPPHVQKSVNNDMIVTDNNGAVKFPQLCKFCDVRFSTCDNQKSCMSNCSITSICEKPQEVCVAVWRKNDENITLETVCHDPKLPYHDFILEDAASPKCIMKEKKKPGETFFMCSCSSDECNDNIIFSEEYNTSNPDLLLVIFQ

B1: PTβR2I (peptide)
chain: ECGLLPVGRPDRVWRLCK-{FITC′}
modifications: cysteine pairing not given here
Turning to B1, the Kd was more than 34 µM with TβR1, more than 34 µM with TβR3 and 3.4 µM in the test with TβR2.
